Data reported in paper PMC8786796.

How the values were obtained:
[1] = biological target: TLR5 (endogenous, on Jurkat JE6-1 NF-κB::eGFP reporter cells) (human (endogenous in Jurkat JE6-1)) (UniProt O60602)
[2] = biological target: TLR5 (endogenous, on Jurkat JE6-1 NF-κB::eGFP reporter cells) (human (endogenous in Jurkat JE6-1)) (UniProt O60602); remark: listed apart in the source

UniProt O60602, sequence (O60602 21-858): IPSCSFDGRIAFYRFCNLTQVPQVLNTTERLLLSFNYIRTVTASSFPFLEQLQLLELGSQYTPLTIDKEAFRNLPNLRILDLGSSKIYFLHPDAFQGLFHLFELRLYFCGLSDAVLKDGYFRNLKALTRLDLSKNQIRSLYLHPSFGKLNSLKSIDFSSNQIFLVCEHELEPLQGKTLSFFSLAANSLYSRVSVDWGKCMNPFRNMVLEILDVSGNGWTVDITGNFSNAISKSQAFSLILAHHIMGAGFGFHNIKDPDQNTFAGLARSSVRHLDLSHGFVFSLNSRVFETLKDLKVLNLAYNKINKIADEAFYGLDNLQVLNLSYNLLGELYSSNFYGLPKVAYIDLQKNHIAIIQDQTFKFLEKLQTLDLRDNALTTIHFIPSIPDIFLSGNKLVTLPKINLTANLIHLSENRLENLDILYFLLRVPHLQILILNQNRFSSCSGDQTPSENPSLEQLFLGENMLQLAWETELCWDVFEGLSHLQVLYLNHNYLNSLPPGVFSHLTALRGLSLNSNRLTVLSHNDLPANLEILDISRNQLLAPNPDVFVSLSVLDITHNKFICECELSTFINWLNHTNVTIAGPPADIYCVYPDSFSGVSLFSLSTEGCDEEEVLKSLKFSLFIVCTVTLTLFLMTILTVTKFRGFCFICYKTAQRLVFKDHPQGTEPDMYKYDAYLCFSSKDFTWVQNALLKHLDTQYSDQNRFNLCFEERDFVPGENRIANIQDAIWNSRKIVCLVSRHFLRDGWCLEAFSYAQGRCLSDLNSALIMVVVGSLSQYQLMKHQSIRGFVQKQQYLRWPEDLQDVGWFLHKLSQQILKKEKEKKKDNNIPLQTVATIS

“flagellin purified from S. typhimurium (Fla-ST standard and Fla-ST ultrapure) (from UniProt P06179 1-495) (ligand)” was tested, and the NF-κB::eGFP expression in Jurkat JE6-1 reporter cells (endogenous TLR5), flagellin titrated, 24 h, flow cytometry; lowest concentration giving detectable eGFP [1] was less than 100 pg/mL and the limit of detection (concentration giving a 1.5-fold increase of eGFP) in JE6-1 TLR5 NF-κB::eGFP reporter cells, flagellin titrated [2] was 10 pg/mL.
